Source: publication PMC8367650

Target: IdeS FabRICATOR enzyme
Assay: SEC

IdeS FabRICATOR enzyme
stoichiometry N: 2
